Assay results reported in publication PMC12111831, “Phase-Separated Multienzyme Condensates for Efficient Synthesis of Imines from Carboxylic Acids with Enhanced Dual-Cofactor Recycling” (International Journal of Molecular Sciences, 2025).

How the values were obtained:
AspRedAm = target: T1, AspRedAm (Aspergillus oryzae, UniProt Q2TW47); assay: NADPH absorbance at […] nm, specific activity; type: biochemical; details: 10 mM aldehyde, 20 mM amine, 0.2 mM NADPH, MOPS pH 7.5, 30 °C
T1 sequence (Q2TW47 1-295): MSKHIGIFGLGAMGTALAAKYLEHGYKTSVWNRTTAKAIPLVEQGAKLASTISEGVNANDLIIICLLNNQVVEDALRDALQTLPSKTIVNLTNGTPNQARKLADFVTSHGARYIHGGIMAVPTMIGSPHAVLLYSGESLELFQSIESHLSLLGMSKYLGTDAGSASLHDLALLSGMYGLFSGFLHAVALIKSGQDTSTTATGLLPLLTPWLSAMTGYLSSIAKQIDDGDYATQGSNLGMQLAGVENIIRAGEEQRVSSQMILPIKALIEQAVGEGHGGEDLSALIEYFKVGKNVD

O=C(O)c1ccccc1 = assay: purified protein; details: ATP, NADPH, Mg2+, 30 °C
COc1ccc(C(=O)O)cc1 = assay: purified protein, by the assay type; details: pH 7.5; 30.0 °C
Description: (§1) Varying substrate concentrations were dissolved in 250 mM NaOH. Substrate-free controls were included for baseline correction. Kinetic parameters were derived via the nonlinear regression of Michaelis–Menten plots using OriginPro 2021 SR2 (64-bit) Build 9.8.0.240.
O=C(O)c1ccc2c(c1)OCO2 = assay: purified protein, by the assay type; details: pH 7.5; 30.0 °C
Description: as §1
CCCC(=O)O = assay: purified protein, by the assay type; details: pH 7.5; 30.0 °C
Description: as §1
Cc1ccc(C(=O)O)cc1 = assay: purified protein, by the assay type; details: pH 7.5; 30.0 °C
Description: as §1
O=C(O)CCc1ccccc1 = assay: purified protein, by the assay type; details: pH 7.5; 30.0 °C
Description: as §1

For `NC1CC1` [cyclopropylamine], which “NADPH absorbance at 340 nm, specific activity” value (AspRedAm; not with aldehyde 2h) is on record?
The value was “both enzymes exhibited catalytic activity toward all tested substrates, except for substrate 2h with cyclopropylamine”.

Which “NADPH absorbance at 340 nm, specific activity” value (AspRedAm) does the source give for `C#CCN` [propargylamine] here?
The value was “both enzymes exhibited catalytic activity toward all tested substrates, except for substrate 2h with cyclopropylamine”.

How did the Km (O=C(O)c1ccccc1) turn out when NiCAR (Nocardia iowensis) was run?
Its Km is 450 ± 30 µM.

What about the kcat (O=C(O)c1ccccc1) of the same compound?
Its kcat is 3.9227 ± 0.0378 s⁻¹.

And the Km (COc1ccc(C(=O)O)cc1)?
Its Km is 1580 ± 140 µM.

What about the kcat (COc1ccc(C(=O)O)cc1) of the same compound?
The kcat was 1.89 ± 0.0387 s⁻¹.

And the Km (O=C(O)c1ccc2c(c1)OCO2)?
The Km was 4490 ± 620 µM.

What about the kcat (O=C(O)c1ccc2c(c1)OCO2) of the same compound?
The kcat was 1.58 ± 0.0875 s⁻¹.

And the Km (CCCC(=O)O)?
Its Km is 101930 ± 21090 µM.

And the kcat (CCCC(=O)O)?
The kcat was 5.56 ± 1.05 s⁻¹.

And the Km (Cc1ccc(C(=O)O)cc1)?
Its Km is 1850 ± 160 µM.

What about the kcat (Cc1ccc(C(=O)O)cc1) of the same compound?
Its kcat is 3.17 ± 0.0792 s⁻¹.

What about the Km (O=C(O)CCc1ccccc1) of the same compound?
The Km was 1040 ± 90 µM.

What about the kcat (O=C(O)CCc1ccccc1) of the same compound?
The kcat was 3.15 ± 0.0588 s⁻¹.
